Test results as given in patent US20140050743A1, “BINDING PROTEINS TO INHIBITORS OF COAGULATION FACTORS” (BAYER INTELLECTUAL PROPERTY GMBH, priority 2011, published 2014).
Residue numbers refer to the chain shown, from its start.

B1: M14-G07-3: antibody, Vh SEQ ID NO: 131, Vl SEQ ID NO: 132 (antibody, listed as Homo Sapiens, V domains shown)
VH: EVQLLESGGGLVQPGGSLRLSCAASGFTFSSYAMSWVRQAPGKGLEWVSGISGSGGSTYYADSVKGRFTISRDNSKNTLYLQMNSLRAEDTAVYYCARQGRTSFYLDVWGQGTLVTVSS
VL: QSVLTQPPSASGTPGQRVTISCSGSSRNIGSYYVYWYQQLPGTAPKLLIYDNRQRPSGVPDRFSGSKSGTSASLAISGLRSEDEADYYCVAWDDSWSGTWVFGGGTKLTVL
B2: M14-G07-23: antibody, Vh SEQ ID NO: 171, Vl SEQ ID NO: 172 (antibody, listed as Homo Sapiens, V domains shown)
VH: B1 VH with T28R, S49G
VL: B1 VL with S31A, Y32F, R53N, W96L
B3: M14-G07-12: antibody, Vh SEQ ID NO: 149, Vl SEQ ID NO: 150 (antibody, listed as Homo Sapiens, V domains shown)
VH: B1 VH
VL: B1 VL with R53N
B4: M14-G07-24: antibody, Vh SEQ ID NO: 173, Vl SEQ ID NO: 174 (antibody, listed as Homo Sapiens, V domains shown)
VH: B1 VH
VL: B1 VL with R53N, W96L
B5: M14-G07-18: antibody, Vh SEQ ID NO: 161, Vl SEQ ID NO: 162 (antibody, listed as Homo Sapiens, V domains shown)
VH: B1 VH with T28R, S49G
VL: B1 VL with R53N
B6: M14-G07-7: antibody, Vh SEQ ID NO: 139, Vl SEQ ID NO: 140 (antibody, listed as Homo Sapiens, V domains shown)
VH: B1 VH with T28R, S49G
VL: B1 VL with R53N, T99H
B7: M14-G07-22: antibody, Vh SEQ ID NO: 169, Vl SEQ ID NO: 170 (antibody, listed as Homo Sapiens, V domains shown)
VH: B1 VH with S49G
VL: B1 VL with R27S, S31A, R53N
B8: M14-G07-14: antibody, Vh SEQ ID NO: 153, Vl SEQ ID NO: 154 (antibody, listed as Homo Sapiens, V domains shown)
VH: B1 VH with S49G
VL: B1 VL with W96Y
B9: M14-G07-20: antibody, Vh SEQ ID NO: 165, Vl SEQ ID NO: 166 (antibody, listed as Homo Sapiens, V domains shown)
VH: B1 VH with T28R, S49G
VL: B1 VL with R27S, S31A, R53N, W96L
B10: M14-G07-21: antibody, Vh SEQ ID NO: 167, Vl SEQ ID NO: 168 (antibody, listed as Homo Sapiens, V domains shown)
VH: B1 VH with T28R, S49G, R101E
VL: B1 VL with R27S, Q38H, R53N
B11: M14-G07-11: antibody, Vh SEQ ID NO: 147, Vl SEQ ID NO: 148 (antibody, listed as Homo Sapiens, V domains shown)
VH: B1 VH with T28R, S49G
VL: B1 VL with S31A, Y32F, T99H
B12: M14-G07-16: antibody, Vh SEQ ID NO: 157, Vl SEQ ID NO: 158 (antibody, listed as Homo Sapiens, V domains shown)
VH: B1 VH with T28R, S49G
VL: B1 VL with Y32F, W96Y
B13: M14-G07-13: antibody, Vh SEQ ID NO: 151, Vl SEQ ID NO: 152 (antibody, listed as Homo Sapiens, V domains shown)
VH: B1 VH with S49G
VL: B1 VL with Y32F
B14: M14-G07-10: antibody, Vh SEQ ID NO: 145, Vl SEQ ID NO: 146 (antibody, listed as Homo Sapiens, V domains shown)
VH: B1 VH with S49G
VL: B1 VL with Y32F, R53N, T99H
B15: M14-G07-25: antibody, Vh SEQ ID NO: 175, Vl SEQ ID NO: 176 (antibody, listed as Homo Sapiens, V domains shown)
VH: B1 VH with T28R, S49G
VL: B1 VL with R27S, S31A, R53N, W96Y
B16: M14-G07-9: antibody, Vh SEQ ID NO: 143, Vl SEQ ID NO: 144 (antibody, listed as Homo Sapiens, V domains shown)
VH: B1 VH with T28R, S49G
VL: B1 VL with Y32F, R53N, D94V, W96L, T99H
B17: M14-G07-19: antibody, Vh SEQ ID NO: 163, Vl SEQ ID NO: 164 (antibody, listed as Homo Sapiens, V domains shown)
VH: B1 VH
VL: B1 VL with Y32F, W96L, T99H
B18: M14-G07-26: antibody, Vh SEQ ID NO: 177, Vl SEQ ID NO: 178 (antibody, listed as Homo Sapiens, V domains shown)
VH: B1 VH with S49G, R101K
VL: B1 VL with R27S, Y32F, R53N, W96Y
B19: M14-G07-17: antibody, Vh SEQ ID NO: 159, Vl SEQ ID NO: 160 (antibody, listed as Homo Sapiens, V domains shown)
VH: B1 VH with S49G
VL: B1 VL with S31A, Y32F
B20: M14-G07-4: antibody, Vh SEQ ID NO: 133, Vl SEQ ID NO: 134 (antibody, listed as Homo Sapiens, V domains shown)
VH: B1 VH with T28R, S49G
VL: B1 VL with S31A, W96Y
B21: M14-G07-15: antibody, Vh SEQ ID NO: 155, Vl SEQ ID NO: 156 (antibody, listed as Homo Sapiens, V domains shown)
VH: B1 VH with S49G
VL: B1 VL with R27S, R53N, T99H
B22: M14-G07-6: antibody, Vh SEQ ID NO: 137, Vl SEQ ID NO: 138 (antibody, listed as Homo Sapiens, V domains shown)
VH: B1 VH with T28R, V37I, S49G
VL: B1 VL with W96Y
B23: M14-G07-8: antibody, Vh SEQ ID NO: 141, Vl SEQ ID NO: 142 (antibody, listed as Homo Sapiens, V domains shown)
VH: B1 VH with S49G
VL: B1 VL with S31A, Y32F, W96Y
B24: M14-G07-5: antibody, Vh SEQ ID NO: 135, Vl SEQ ID NO: 136 (antibody, listed as Homo Sapiens, V domains shown)
VH: B1 VH with T28R
VL: B1 VL with W96Y

assay: ELISA-based activity assay of antibody variants without a competition step; format: binding; parameters: key: +++: Variants with an average ratio above reference plus 2×SD; +/−: variants with a ratio below reference minus 2×SD; ++: All variants with a performance in between both thresholds; −: Variants with a ratio below 0.5; settings: Table 10, multiple substitutions within M14-G07, variant to reference ratio (reference 2-fold improved over wt)
Method: To determine the activity of the mutated antibody variants on compound from Example 1K an equilibrium or dissociation limited ELISA assay format was used. Briefly, MTP plates (Nunc Maxisorp black, 460518) were coated with 4 μg/ml streptavidin (Calbiochem, 189730) diluted in coating buffer (Candor Bioscience GmbH, 121500) and incubated over night at 4° C. After washing with PBST, plates were blocked with 100% Smart Block (Candor Bioscience GmbH, 113500) in PBST for 1 h at room temperature and the washing step was repeated. Plates were incubated with compound from Example 1K at varying concentrations (0.3-200 nM) for 1 h at 37° C., washed with PBST and antibody fragments were immobilized by adding 25 μl of the crude bacterial cultures for 1 h at room temperature. After washing with PBST a competition step or the immediate detection was performed. […] For the detection of the residually bound Fabs a HRP-coupled anti-lambda antibody (Sigma, A5175) diluted in 10% Smart Block in PBST was added for 1 h at room temperature. After washing 10 μM Amplex Red (Invitrogen, A12222) were added and incubated for 10 to 30 min at room temperature followed by measurement of the fluorescence signal.
Provided in Table 9 are several examples of single and/or double amino acid substitutions introduced into the heavy and/or the light chain of M14-G07 (wt). Performance of the variants was analyzed in quadruples in the ELISA without a competition step and the FXa deinhibition assay (FXa DIA). In the ELISA, averages were calculated and normalized to the respective average expression level. Overall performance of variants was evaluated by comparing the variant to wt ratio from 2-3 independent experiments. Variants with an average ratio above wt plus 2×SD (standard deviation of the ratio) were considered as improved and are marked with “++”, whereas variants with a ratio below wt minus 2×SD were considered as reduced in their binding affinity and are marked with “−”. All variants with a performance in between both thresholds are marked with “+/−”. Variants with average fluorescence counts below the negative control (non-expressing cells) plus 3×SD were considered as non-binding and marked with “−−” with none of the variants fulfilling this criteria. In the FXa deinhibition assay averages were calculated and overall performance of variants was evaluated by comparing the variant to wt ratio from 2-3 independent experiments. Variants with an average ratio above wt plus 2×SD were considered as improved and are marked with “++”, whereas variants with a ratio below wt minus 2×SD were considered as either reduced in their binding affinity or non-binding and are marked with “−−”. All variants with a performance in between both thresholds are marked with “+/−”. Variants not analyzed are marked with “nd” (not determined). CDRs were defined according to Kabat.
Provided in Table 10 are examples of combined amino acid substitutions within M14-G07 antibodies. While not every combination is provided in Table 10, it is contemplated that the anti-rivaroxaban antibody may comprise any combination of modifications provided. Variant performance was analyzed in quadruples in the ELISA without a competition step. Averages were calculated, average background signals determined on a streptavidin coated plate without compound from Example 1K were subtracted if the compound from Example 1K concentration used for coating was below 10 nM and signals were normalized to the respective average expression level. Overall performance of variants was evaluated by comparing the variant to reference ratio from 2-3 independent experiments using a 2-fold improved reference variant as compared to wt. Variants with an average ratio above reference plus 2×SD are marked with “+++”, whereas variants with a ratio below reference minus 2×SD are marked with “+/−”. All variants with a performance in between both thresholds are marked with “++”. […]

Molecule	ELISA
B1	+++
B2	+++
B3	+++
B4	+++
B5	+++
B6	+++
B7	+++
B8	+++
B9	+++
B10	+++
B11	+++
B12	+++
B13	+++
B14	+++
B15	+++
B16	+++
B17	+++
B18	+++
B19	+++
B20	+++
B21	+++
B22	+++
B23	+++
B24	+++
